# Source: patent US20210032299A1 (Eli Lilly, published 2021)
# Starred links: 1 amine or outer side, 2 acyl side, 3 side chain; linkers in the order of their positions; H or OH if unused. Non-standard residues stand in square brackets, D forms with d. Groups on a side chain read outwards from the residue. No end group written: not given here. *: point of attachment. C20 diacid = O=C(O)CCCCCCCCCCCCCCCCCCC(=O)*; γGlu = O=C(O)[C@H](CCC(=O)[*:2])N[*:1]; 4Pal = N[C@@H](Cc1ccncc1)C(=O)O; αMeL = CC(C)C[C@](C)(N)C(=O)O; Orn = NCCC[C@H](N)C(=O)O; AEEA = NCCOCCOCC(=O)O; Aib = CC(C)(N)C(=O)O
# T1: human glucose-dependent insulinotropic polypeptide (GIP) receptor (human, UniProt P48546 22-466)
# T1 construct: whole, on cells; Assayed as crude membranes of stably transfected CHO cells; also called hGIPR; human GIP receptor
# T1 sequence (looked up): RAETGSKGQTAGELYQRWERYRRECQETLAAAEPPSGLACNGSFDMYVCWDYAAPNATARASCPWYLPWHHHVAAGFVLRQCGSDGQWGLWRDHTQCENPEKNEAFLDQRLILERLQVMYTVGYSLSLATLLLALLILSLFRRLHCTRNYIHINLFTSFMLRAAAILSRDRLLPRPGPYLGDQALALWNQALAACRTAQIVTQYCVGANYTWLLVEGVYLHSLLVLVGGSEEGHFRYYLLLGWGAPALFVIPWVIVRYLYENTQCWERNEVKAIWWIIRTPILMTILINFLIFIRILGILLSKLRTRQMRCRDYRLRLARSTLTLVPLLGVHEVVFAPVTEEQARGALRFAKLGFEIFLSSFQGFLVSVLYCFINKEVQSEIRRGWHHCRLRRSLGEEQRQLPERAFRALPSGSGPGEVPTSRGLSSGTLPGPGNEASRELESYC
# Legend:
# [1] = target: T1, human glucose-dependent insulinotropic …; assay: SPA, displacement of [125I]-GIP from hGIPR membranes, 0.1% bacitracin
# [2] = target: T2, human GLP-1 receptor (human, UniProt P43220 24-463); assay: SPA, displacement of [125I]-GLP-1 from hGLP-1R membranes, 0.1% bacitracin
# T2 construct: whole, on cells; Assayed as crude membranes of stably transfected HEK293 cells; also called hGLP1R; hGLP-1R
# Summary of the method: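 Binding buffer: 25 mM HEPES pH 7.4, 2.5 mM CaCl₂, 1 mM MgCl₂, 0.1% bacitracin, 0.003% Tween-20, protease inhibitors without EDTA. Four-parameter nonlinear regression; Kᵢ given as geometric mean ± SEM, n = independent replicates run on different days.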
# [3] = target: T3, human glucagon receptor (human, UniProt P47871 26-477); assay: SPA, displacement of [125I]-Gcg from hGcgR membranes, 0.1% bacitracin
# T3 construct: whole, on cells; Assayed as crude membranes of stably transfected HEK293 cells; also called hGcgR; GcgR
# T3 sequence (P47871 26-477): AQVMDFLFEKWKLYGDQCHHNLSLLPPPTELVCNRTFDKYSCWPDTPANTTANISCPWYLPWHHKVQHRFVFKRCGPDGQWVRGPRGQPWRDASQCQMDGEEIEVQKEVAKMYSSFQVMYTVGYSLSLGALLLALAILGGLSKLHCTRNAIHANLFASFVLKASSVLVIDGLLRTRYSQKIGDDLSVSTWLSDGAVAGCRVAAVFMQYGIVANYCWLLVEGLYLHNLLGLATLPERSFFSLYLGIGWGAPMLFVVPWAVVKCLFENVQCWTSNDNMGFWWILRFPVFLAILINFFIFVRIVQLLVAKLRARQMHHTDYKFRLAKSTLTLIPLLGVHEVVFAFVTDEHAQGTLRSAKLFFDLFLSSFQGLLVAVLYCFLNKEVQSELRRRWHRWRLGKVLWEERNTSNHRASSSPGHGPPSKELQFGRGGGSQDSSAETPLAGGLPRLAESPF
# Summary of the method: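 Binding buffer: 25 mM HEPES pH 7.4, 2.5 mM CaCl₂, 1 mM MgCl₂, 0.003% Tween-20, protease inhibitors without EDTA. Counted by scintillation after 12 h incubation/settling at room temperature. Four-parameter nonlinear fit; Kᵢ given as geometric mean ± SEM of independent replicates run on different days.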
Binder,Ki [1],Ki [2],Ki [3]
Y[Aib]EGTFISDYSI[αMeL]LD[Orn]K([AEEA-AEEA-γGlu-C20 diacid])HQ[Aib]DFVE[4Pal]LLEQGPSSGAPPPS-NH2 (N-terminus assumed; SMILES CC[C@H](C)[C@H](NC(=O)[C@H](Cc1ccccc1)NC(=O)[C@@H](NC(=O)CNC(=O)[C@H](CCC(=O)O)NC(=O)C(C)(C)NC(=O)[C@@H](N)Cc1ccc(O)cc1)[C@@H](C)O)C(=O)N[C@@H](CO)C(=O)N[C@@H](CC(=O)O)C(=O)N[C@@H](Cc1ccc(O)cc1)C(=O)N[C@@H](CO)C(=O)N[C@H](C(=O)N[C@@](C)(CC(C)C)C(=O)N[C@@H](CC(C)C)C(=O)N[C@@H](CC(=O)O)C(=O)N[C@@H](CCCN)C(=O)N[C@@H](CCCCNC(=O)COCCOCCNC(=O)COCCOCCNC(=O)CC[C@H](NC(=O)CCCCCCCCCCCCCCCCCCC(=O)O)C(=O)O)C(=O)N[C@@H](Cc1c[nH]cn1)C(=O)N[C@@H](CCC(N)=O)C(=O)NC(C)(C)C(=O)N[C@@H](CC(=O)O)C(=O)N[C@@H](Cc1ccccc1)C(=O)N[C@H](C(=O)N[C@@H](CCC(=O)O)C(=O)N[C@@H](Cc1ccncc1)C(=O)N[C@@H](CC(C)C)C(=O)N[C@@H](CC(C)C)C(=O)N[C@@H](CCC(=O)O)C(=O)N[C@@H](CCC(N)=O)C(=O)NCC(=O)N1CCC[C@H]1C(=O)N[C@@H](CO)C(=O)N[C@@H](CO)C(=O)NCC(=O)N[C@@H](C)C(=O)N1CCC[C@H]1C(=O)N1CCC[C@H]1C(=O)N1CCC[C@H]1C(=O)N[C@@H](CO)C(N)=O)C(C)C)[C@@H](C)CC) [Example 81],0.0374 nM,714 nM,699 nM
Y[Aib]EGTFISDYSI[αMeL]LD[Orn]K([AEEA-AEEA-γGlu-C20 diacid])HQ[Aib]DFVE[4Pal]LLEGGPSSGAPPPS-NH2 (N-terminus assumed; SMILES CC[C@H](C)[C@H](NC(=O)[C@H](Cc1ccccc1)NC(=O)[C@@H](NC(=O)CNC(=O)[C@H](CCC(=O)O)NC(=O)C(C)(C)NC(=O)[C@@H](N)Cc1ccc(O)cc1)[C@@H](C)O)C(=O)N[C@@H](CO)C(=O)N[C@@H](CC(=O)O)C(=O)N[C@@H](Cc1ccc(O)cc1)C(=O)N[C@@H](CO)C(=O)N[C@H](C(=O)N[C@@](C)(CC(C)C)C(=O)N[C@@H](CC(C)C)C(=O)N[C@@H](CC(=O)O)C(=O)N[C@@H](CCCN)C(=O)N[C@@H](CCCCNC(=O)COCCOCCNC(=O)COCCOCCNC(=O)CC[C@H](NC(=O)CCCCCCCCCCCCCCCCCCC(=O)O)C(=O)O)C(=O)N[C@@H](Cc1c[nH]cn1)C(=O)N[C@@H](CCC(N)=O)C(=O)NC(C)(C)C(=O)N[C@@H](CC(=O)O)C(=O)N[C@@H](Cc1ccccc1)C(=O)N[C@H](C(=O)N[C@@H](CCC(=O)O)C(=O)N[C@@H](Cc1ccncc1)C(=O)N[C@@H](CC(C)C)C(=O)N[C@@H](CC(C)C)C(=O)N[C@@H](CCC(=O)O)C(=O)NCC(=O)NCC(=O)N1CCC[C@H]1C(=O)N[C@@H](CO)C(=O)N[C@@H](CO)C(=O)NCC(=O)N[C@@H](C)C(=O)N1CCC[C@H]1C(=O)N1CCC[C@H]1C(=O)N1CCC[C@H]1C(=O)N[C@@H](CO)C(N)=O)C(C)C)[C@@H](C)CC) [Example 82],0.0617 nM,388 nM,305 nM
